Common to all, as to assay: purified protein
Substrate in data set [1]: Oc1ccc2c(O)cccc2c1
The format is biochemical, Streptomyces griseoflavus. Particulars: FPP as co-substrate; Mg2+ stimulates but is not required.

Substrate in data set [2]: CC(C)=CCC/C(C)=C/CC/C(C)=C/CO[P@@](=O)(O)OP(=O)(O)O
Conditions: […],6-DHN as co-substrate; Mg2+ stimulates but is not required.

Substrate in data set [3]: CC(C)=CCC/C(C)=C/COP(=O)(O)OP(=O)(O)O
Particulars: […],6-DHN as co-substrate; Mg2+ stimulates but is not required.

Substrate in data set [4]: Oc1ccc2c(O)cccc2c1
The format is biochemical, Micromonospora sp. RV115. Particulars: FPP as co-substrate; Mg2+ stimulates but is not required.

Substrate in data set [5]: O=C1Nc2ccccc2Nc2ccccc21
Format: biochemical, Micromonospora sp. RV115. Conditions: FPP as co-substrate; Mg2+ stimulates but is not required.

B1: Ssrg_00986 (Streptomyces griseoflavus Tu4000) (protein)
chain: MSGTSEADEICSAVTETAGRLGIAFSRDKVWPILSAYGDAFAHAMPLAFRMATGPQHAGDVDCRFITHPKDRNPYPLAVSKGLTPKTSHPVGTLLSEIEERFPIDGYGIDFGVVNGFTKVYAGFAPQDLQNASKLVEIPAMPRSLAGNFDFFVRHGLDDKVAFVAVDYLHRTVNVYFNDVPAACFESDGIRRMLRDLGLPGPSDRMLGIGGQAFGLYITLNWDSPAIERFCFGVTTTDLSSLPVSIEPQLEKFAHCVPYGGADRKFVYGVAAAPEGEYYKLETHYKWNPGTVAFI
notes: His8-tagged Ssrg_00986 (295 amino acids)
For B1, the K0.5 in the data set “purified protein [1]” is listed as 96 ± 11 µM. Also, the Michaelis-Menten constant (Km) in the data set “purified protein [2]” and in “purified protein [3]” was 45 µM each time.

B2: DzmP (Micromonospora sp. RV115) (protein)
chain: MSGTPEVAELYSTIEESARQLDVPCSRDRVWPVLSAYGDAFAHPEAVVAFRVATALRHAGELDCRFRTHPDDRDPYASAIARGLTPRTDHPIGGLLAEVHRRCPVESHGIDFGVVGGFKKIYAAFAPDELQVASVLAGIPAMPRSLAANAGFFTRHGLDDRVGVLGFDYPARTVNVYFNDVPRECFEPETIRSTLRRTGMAEPSEQMLRLGAGAFGLYVTLGWDSPEIERICYAAATTDLTTLPVPVEPEIEKFVKSVPYGGGDRKFVYGVALTPKGEYYKLESHYKWKPGAVNFI
notes: His8-tagged DzmP (296 amino acids)
Turning to B2, the Michaelis constant (Km) in “purified protein [2]” came to 20 µM; in the data set “purified protein [3]”, 4.9 ± 0.9 µM; in the data set “purified protein [5]”, 133 ± 30 µM. Besides, the K0.5 in “purified protein [4]” is given as 18 ± 1 µM.

In general, Km refers to the concentration of substrate that gives half-maximal velocity.

These data come from publication PMC3871700, “Unusual N-Prenylation in Diazepinomicin Biosynthesis: The Farnesylation of a Benzodiazepine Substrate Is Catalyzed by a New Member of the ABBA Prenyltransferase Superfamily” (PLoS ONE, 2013).
